The results in this text go back to the supplement of paper PMC7877785.

± gives the uncertainty stated by the source.

The series in a line: self-splicing fitness, log relative to wild type (ln ratio); higher = more splicing; Tetrahymena group I intron in knt gene, E. coli kanamycin selection, DiMSum; sequences stand for … in CUCUCU…GGAGGGAAAAGUUAUCAGGCAUGCACCUGGUAGCUAGUCUUUAAACCAAUAGAUUGCAUCGGUUUAAAAGGCAAGACCGUCAAAUUGCGGGAAAGGGGUCAACAGCCGUUCAGUACCAAGUCUCAGGGGAAACUUUGAGAUGGCCUUGCAAAGGGUAUGGUAAUAAGCUGACGGACAUGGUCCUAACCACGCAGCCAAGUCCUAAGUCAACAGAUCUUCUGUUGAUAUGGAUGCAGUUCACAGACUAAAUGUCGGUCGGGGAAGAUGUAUUCUUCUCAUAAGAUAUAGUCGGACCUCUCCUUAAUGGGAGCUAGCGGAUGAAGUGAUGCAACACUGGAGCCGCUGGGAACUAAUUUGUAUGCGAAAGUAUAUUGAUUAGUUUUGGAGUACUCGUGGUCG
In outline:
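DiMSum derived fitness as the error-weighted combination of fold changes across replicates, kanamycin versus no kanamycin, normalised to wild type. E. coli BL21(DE3) held the library, which randomised all eight P1ex-region intron nucleotides within the knt kanamycin-resistance gene on pET-22b(+). Six replicate transformations grew overnight at 37°C or 30°C on LB agar with or without 25 μg/mL kanamycin, also containing 100 μg/mL carbenicillin, 50 μM IPTG and 0.2% rhamnose, and pooled colonies were amplicon-sequenced on an Illumina HiSeq 2500.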

As to AGUAAGCAAUAUUACGCCUC, for the setting “37 °C”, the “self-splicing fitness (ln)” value was -1.7 ± 0.38.

As for AGUAAGCAAUAUUACGCGCC, the “self-splicing fitness (ln)” value reads like this: (30 °C) -0.457 ± 0.22; (37 °C) 0.671 ± 0.29.

As to AGUAAGCAAUAUUACGGAGA, the “self-splicing fitness (ln)” value runs as follows: (30 °C) -3.47 ± 0.32; (37 °C) -2.44 ± 0.42.

For the sequence AGUAAGCAAUAUUACGGCCC, the “self-splicing fitness (ln)” value was -0.317 ± 0.14 (30 °C) and -0.0183 ± 0.22 (37 °C).

With AGUAAGCAAUAUUACGGCUC, the “self-splicing fitness (ln)” value (30 °C) was -2.15 ± 0.2 and the “self-splicing fitness (ln)” value (37 °C) is -1.79 ± 0.27.

For the sequence AGUAAGCAAUAUUACGGGUC, the “self-splicing fitness (ln)” value is, setting by setting: (30 °C) -3.31 ± 0.42; (37 °C) -2.92 ± 0.31.

As for AGUAAGCAAUAUUACGGGUG, the “self-splicing fitness (ln)” value (30 °C) was -3.13 ± 0.18 and the “self-splicing fitness (ln)” value (37 °C) is -0.695 ± 0.11.

Turning to AGUAAGCAAUAUUACGGUGA, the “self-splicing fitness (ln)” value reads like this: (30 °C) -2.73 ± 0.17; (37 °C) -1.21 ± 0.14.

In the case of AGUAAGCAAUAUUACGUAAG, the “self-splicing fitness (ln)” value was -1.35 ± 0.13 (30 °C) and -1.96 ± 0.23 (37 °C).

For AGUAAGCAAUAUUACGUCCG, the “self-splicing fitness (ln)” value is -2.03 ± 0.17 (30 °C) and -0.809 ± 0.21 (37 °C).

Consider AGUAAGCAAUAUUACGUCGC, for which, under “37 °C”, the “self-splicing fitness (ln)” value is -1.65 ± 0.31.

Consider AGUAAGCAAUAUUACGUGCC, for which the “self-splicing fitness (ln)” value (30 °C) is -0.0863 ± 0.11 and the “self-splicing fitness (ln)” value (37 °C) was -0.612 ± 0.16.

For AGUAAGCAAUAUUACGUGUG, the “self-splicing fitness (ln)” value was -4.26 ± 0.18 (30 °C) and -2.32 ± 0.12 (37 °C).

With AGUAAGCAAUAUUACGUUCA, the “self-splicing fitness (ln)” value (30 °C) is -1.29 ± 0.095 and the “self-splicing fitness (ln)” value (37 °C) was -0.266 ± 0.12.

Turning to AGUAAGCAAUAUUACGUUCU, the “self-splicing fitness (ln)” value (30 °C) was -0.729 ± 0.085 and the “self-splicing fitness (ln)” value (37 °C) is -1.21 ± 0.11.

Regarding AGUCAGCAAUAUUACGAUCC, the “self-splicing fitness (ln)” value by setting is: (30 °C) 0.284 ± 0.16; (37 °C) 0.198 ± 0.23.

As to AGUCAGCAAUAUUACGAUGU, the “self-splicing fitness (ln)” value is, setting by setting: (30 °C) 0.202 ± 0.062; (37 °C) 0.34 ± 0.087.

As for AGUCAGCAAUAUUACGCAGA, the “self-splicing fitness (ln)” value (30 °C) was -1.64 ± 0.2 and the “self-splicing fitness (ln)” value (37 °C) is -1.45 ± 0.22.

As to AGUCAGCAAUAUUACGCCCC, the “self-splicing fitness (ln)” value stood at 0.28 ± 0.17 (30 °C) and 0.672 ± 0.33 (37 °C).

Consider AGUCAGCAAUAUUACGCCCU, for which the “self-splicing fitness (ln)” value is, setting by setting: (30 °C) -1.1 ± 0.24; (37 °C) -0.315 ± 0.3.

As for AGUCAGCAAUAUUACGCUCA, the “self-splicing fitness (ln)” value is, setting by setting: (30 °C) -0.675 ± 0.095; (37 °C) -0.791 ± 0.12.

As to AGUCAGCAAUAUUACGCUGU, the “self-splicing fitness (ln)” value by setting is: (30 °C) -4.12 ± 0.34; (37 °C) -2.73 ± 0.22.

AGUCAGCAAUAUUACGGACA: the “self-splicing fitness (ln)” value runs as follows: (30 °C) 0.233 ± 0.078; (37 °C) 0.157 ± 0.087.

AGUCAGCAAUAUUACGGAGA: the “self-splicing fitness (ln)” value (37 °C) was -1.53 ± 0.38.

Take AGUCAGCAAUAUUACGGAUA: the “self-splicing fitness (ln)” value is -0.982 ± 0.1 (30 °C) and -0.318 ± 0.098 (37 °C).

On to AGUCAGCAAUAUUACGGCCC, for which the “self-splicing fitness (ln)” value (30 °C) was -0.436 ± 0.12 and the “self-splicing fitness (ln)” value (37 °C) is -0.0813 ± 0.18.

As for AGUCAGCAAUAUUACGGGAA, the “self-splicing fitness (ln)” value (30 °C) was -2.12 ± 0.17 and the “self-splicing fitness (ln)” value (37 °C) was -2.4 ± 0.22.

Consider AGUCAGCAAUAUUACGGGAU, for which the “self-splicing fitness (ln)” value is -1.04 ± 0.079 (30 °C) and -1.51 ± 0.15 (37 °C).

On to AGUCAGCAAUAUUACGGUAU, for which the “self-splicing fitness (ln)” value runs as follows: (30 °C) -0.592 ± 0.05; (37 °C) -0.99 ± 0.063.

On to AGUCAGCAAUAUUACGUAUC, for which the “self-splicing fitness (ln)” value is -1.19 ± 0.076 (30 °C) and -0.186 ± 0.11 (37 °C).

Consider AGUCAGCAAUAUUACGUCAG, for which the “self-splicing fitness (ln)” value (30 °C) is -2.65 ± 0.16 and the “self-splicing fitness (ln)” value (37 °C) was -1.86 ± 0.15.

On to AGUCAGCAAUAUUACGUCUC, for which the “self-splicing fitness (ln)” value by setting is: (30 °C) -4.29 ± 0.31; (37 °C) -2.01 ± 0.15.

In the case of AGUCAGCAAUAUUACGUGAG, the “self-splicing fitness (ln)” value reads like this: (30 °C) -0.691 ± 0.054; (37 °C) -0.0397 ± 0.086.

With AGUCAGCAAUAUUACGUGCU, the “self-splicing fitness (ln)” value reads like this: (30 °C) -2.18 ± 0.12; (37 °C) -1.43 ± 0.12.

Turning to AGUCAGCAAUAUUACGUGGU, the “self-splicing fitness (ln)” value runs as follows: (30 °C) -1.26 ± 0.11; (37 °C) -2.37 ± 0.19.

Turning to AGUCAGCAAUAUUACGUUGA, the “self-splicing fitness (ln)” value (37 °C) was -3.49 ± 0.31.

AGUGAGCAAUAUUACGAAGG: the “self-splicing fitness (ln)” value is, setting by setting: (30 °C) -3.45 ± 0.37; (37 °C) -1.41 ± 0.38.

AGUGAGCAAUAUUACGAAUU: the “self-splicing fitness (ln)” value by setting is: (30 °C) -3.18 ± 0.37; (37 °C) -2.56 ± 0.33.

Take AGUGAGCAAUAUUACGAGUC: the “self-splicing fitness (ln)” value (30 °C) is -4.15 ± 0.47 and the “self-splicing fitness (ln)” value (37 °C) is -1.93 ± 0.18.

For AGUGAGCAAUAUUACGCCAU, the “self-splicing fitness (ln)” value runs as follows: (30 °C) -2.58 ± 0.43; (37 °C) -0.383 ± 0.35.

In the case of AGUGAGCAAUAUUACGCCCA, the “self-splicing fitness (ln)” value runs as follows: (30 °C) -3.28 ± 0.46; (37 °C) -2.42 ± 0.37.

For the sequence AGUGAGCAAUAUUACGCCCG, the “self-splicing fitness (ln)” value (30 °C) was -2.27 ± 0.4.

Turning to AGUGAGCAAUAUUACGCGAA, the “self-splicing fitness (ln)” value is -2.36 ± 0.32 (30 °C) and -1.56 ± 0.29 (37 °C).

Turning to AGUGAGCAAUAUUACGCGCU, for the setting “37 °C”, the “self-splicing fitness (ln)” value is -1.83 ± 0.39.

Regarding AGUGAGCAAUAUUACGCUUC, the “self-splicing fitness (ln)” value by setting is: (30 °C) -2.41 ± 0.25; (37 °C) -2.7 ± 0.34.

Turning to AGUGAGCAAUAUUACGGAAG, where the note is “30 °C”, the “self-splicing fitness (ln)” value is -2.58 ± 0.25.

On to AGUGAGCAAUAUUACGGCAC, for which the “self-splicing fitness (ln)” value (30 °C) is -1.29 ± 0.17 and the “self-splicing fitness (ln)” value (37 °C) is -1.01 ± 0.21.

On to AGUGAGCAAUAUUACGGCCU, for which the “self-splicing fitness (ln)” value reads like this: (30 °C) -0.495 ± 0.13; (37 °C) 0.416 ± 0.15.

AGUGAGCAAUAUUACGGCUA: the “self-splicing fitness (ln)” value (30 °C) is -0.705 ± 0.24 and the “self-splicing fitness (ln)” value (37 °C) was -1.38 ± 0.23.

As for AGUGAGCAAUAUUACGGUGC, the “self-splicing fitness (ln)” value runs as follows: (30 °C) -3.77 ± 0.27; (37 °C) -1.91 ± 0.22.

AGUGAGCAAUAUUACGUACA: the “self-splicing fitness (ln)” value (30 °C) was -1.72 ± 0.28 and the “self-splicing fitness (ln)” value (37 °C) is -0.682 ± 0.36.

In the case of AGUGAGCAAUAUUACGUAUA, the “self-splicing fitness (ln)” value is, setting by setting: (30 °C) -2.18 ± 0.25; (37 °C) -2.72 ± 0.27.

In the case of AGUGAGCAAUAUUACGUAUU, the “self-splicing fitness (ln)” value runs as follows: (30 °C) -3.27 ± 0.25; (37 °C) -2.23 ± 0.31.

With AGUGAGCAAUAUUACGUGAA, the “self-splicing fitness (ln)” value reads like this: (30 °C) -3.3 ± 0.36; (37 °C) -2.91 ± 0.19.

As for AGUGAGCAAUAUUACGUGCA, the “self-splicing fitness (ln)” value was -2.06 ± 0.14 (30 °C) and -0.509 ± 0.13 (37 °C).

AGUGAGCAAUAUUACGUGGU: the “self-splicing fitness (ln)” value is, setting by setting: (30 °C) -3.64 ± 0.22; (37 °C) -2.18 ± 0.23.

Take AGUGAGCAAUAUUACGUGUU: the “self-splicing fitness (ln)” value is -4.67 ± 0.46 (30 °C) and -3.04 ± 0.25 (37 °C).

Regarding AGUUAGCAAUAUUACGACCG, the “self-splicing fitness (ln)” value was -0.776 ± 0.093 (30 °C) and -0.166 ± 0.13 (37 °C).

Consider AGUUAGCAAUAUUACGCAAA, for which the “self-splicing fitness (ln)” value (37 °C) is -1.57 ± 0.29.

As to AGUUAGCAAUAUUACGCAGA, the “self-splicing fitness (ln)” value is, setting by setting: (30 °C) -2.06 ± 0.26; (37 °C) -2.04 ± 0.26.

For the sequence AGUUAGCAAUAUUACGCAGG, the “self-splicing fitness (ln)” value (30 °C) was -2.31 ± 0.3 and the “self-splicing fitness (ln)” value (37 °C) is -0.586 ± 0.29.

In the case of AGUUAGCAAUAUUACGCAGU, the “self-splicing fitness (ln)” value runs as follows: (30 °C) -2.38 ± 0.23; (37 °C) -2.62 ± 0.31.
